Experimental data reported in patent US20240309103A1 (Regeneron, published 2024).

How the values were obtained:
mfNPR1-mFc [1] = target: T1, mfNPR1-mFc (monkey); assay: SPR, mAb captured, 37C
T1 construct: also called dimeric monkey NPR1
T1 chain: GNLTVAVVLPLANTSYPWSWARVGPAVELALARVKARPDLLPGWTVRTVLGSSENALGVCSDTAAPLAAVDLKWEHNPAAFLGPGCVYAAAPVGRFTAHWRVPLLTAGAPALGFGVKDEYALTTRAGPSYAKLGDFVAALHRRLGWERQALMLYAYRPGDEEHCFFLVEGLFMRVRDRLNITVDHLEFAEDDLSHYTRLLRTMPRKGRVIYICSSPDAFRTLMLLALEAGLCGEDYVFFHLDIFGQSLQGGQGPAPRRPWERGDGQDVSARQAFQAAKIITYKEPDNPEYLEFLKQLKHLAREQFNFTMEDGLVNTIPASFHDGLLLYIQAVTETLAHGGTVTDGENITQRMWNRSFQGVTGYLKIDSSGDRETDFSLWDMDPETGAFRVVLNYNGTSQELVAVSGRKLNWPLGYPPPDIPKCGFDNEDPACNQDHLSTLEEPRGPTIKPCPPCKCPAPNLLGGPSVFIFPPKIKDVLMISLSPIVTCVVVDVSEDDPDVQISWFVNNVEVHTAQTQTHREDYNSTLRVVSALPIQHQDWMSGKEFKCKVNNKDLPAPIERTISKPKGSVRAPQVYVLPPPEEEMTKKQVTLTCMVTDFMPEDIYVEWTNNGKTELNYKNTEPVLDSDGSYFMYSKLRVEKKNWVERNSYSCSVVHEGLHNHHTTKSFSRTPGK
Method: (§1) Equilibrium dissociation constant (KD) for different NPR1 reagents binding to purified anti-NPR1 monoclonal antibodies (mAbs) were determined using a real-time surface plasmon resonance based Biacore 4000 biosensor. All binding studies were performed in 10 mM HEPES, 150 mM NaCl, 3 mM EDTA, and 0.05% v/v Surfactant Tween-20, pH 7.4 (HBS-ET) running buffer at 25° C. and 37° C. The Biacore CM5 sensor chip surface was first derivatized by amine coupling with either mouse anti-human Fc specific mAb (GE Healthcare, #BR100839) or goat anti-human Fcy specific polyclonal antibody (Jackson ImmunoResearch Laboratories, #BR-1008-39) to capture anti-NPR1 mAbs.

hNPR1-mFc:hBNP complex [2] = target: T2, hNPR1-mFc:hBNP complex (human, UniProt P16860 103-134); assay: SPR, mAb captured, 37C
T2 construct: also called human NPR1 complexed to BNP
Method: as §1

mfNPR1-mFc:hANP complex [3] = target: T3, mfNPR1-mFc:hANP complex (monkey; human, UniProt P01160 124-151); assay: SPR, mAb captured, 37C
T3 construct: also called monkey NPR1 complexed to ANP
Method: as §1

[4] = target: T4, hNPR1-mFc:hANP or hNPR1-hFc:hANP complex (human, UniProt P01160 124-151); assay: SPR, mAb captured, 37C
T4 construct: also called human NPR1 complexed to ANP
Method: as §1

mfNPR1-mFc [5] = target: T1, mfNPR1-mFc; assay: SPR, mAb captured, 25C
Method: as §1

hNPR1-mFc:hBNP complex [6] = target: T2, hNPR1-mFc:hBNP complex; assay: SPR, mAb captured, 25C
Method: as §1

mfNPR1-mFc:hANP complex [7] = target: T3, mfNPR1-mFc:hANP complex; assay: SPR, mAb captured, 25C
Method: as §1

mfNPR1-mFc:hBNP complex = target: T5, mfNPR1-mFc:hBNP complex (monkey; human, UniProt P16860 103-134); assay: SPR, mAb captured, 25C
T5 construct: also called monkey NPR1 complexed to BNP
Method: as §1

[8] = target: T4, hNPR1-mFc:hANP or hNPR1-hFc:hANP complex; assay: SPR, mAb captured, 25C
Method: as §1

B1: mAb25491 (antibody, human IgG4, V domains shown)
VH: QVQLVQSGAEVMKPGASVKVSCKASGYTFTGYYIHWVRQAPGQGLEWMGWITPNSGATNYAQKFQGRVTLTRDTSISTAYMELTRLKSDDTAVYYCARGGQLEFFYYYYGMDVWGQGTTVTVSS
VL: DIQMTQSPSSLSASAGDRVTITCRASQSIDSYLNWYQQKPGKAPKLLISATSGFQSGVPSRFSGSGSGTDFTLTISSLQPEDFGTYYCQQSYTTPITFGQGTRLEIK
100 nM Ag Bound (RU) (mfNPR1-mFc [1]): 114 RU | Kd (mfNPR1-mFc [1]): 3.49 nM | koff (mfNPR1-mFc [1]): 0.000164 s⁻¹ | kon (mfNPR1-mFc [1]): 47000 M⁻¹ s⁻¹ | t½ (mfNPR1-mFc [1]): 70.4 min | 100 nM Ag Bound (RU) (hNPR1-mFc:hBNP complex [2]): 96 RU | Kd (hNPR1-mFc:hBNP complex [2]): 2.45 nM | koff (hNPR1-mFc:hBNP complex [2]): 0.000134 s⁻¹ | kon (hNPR1-mFc:hBNP complex [2]): 54700 M⁻¹ s⁻¹ | t½ (hNPR1-mFc:hBNP complex [2]): 86.2 min | 100 nM Ag Bound (RU) (mfNPR1-mFc:hANP complex [3]): 148 RU | Kd (mfNPR1-mFc:hANP complex [3]): 1.49 nM | koff (mfNPR1-mFc:hANP complex [3]): 0.000106 s⁻¹ | kon (mfNPR1-mFc:hANP complex [3]): 71000 M⁻¹ s⁻¹ | t½ (mfNPR1-mFc:hANP complex [3]): 109 min | 100 nM Ag Bound (RU) [4]: 96 RU | Kd [4]: 1.95 nM | koff [4]: 0.000111 s⁻¹ | kon [4]: 56900 M⁻¹ s⁻¹ | t½ [4]: 104 min | 100 nM Ag Bound (RU) (mfNPR1-mFc [5]): 81 RU | Kd (mfNPR1-mFc [5]): 1.4 nM | koff (mfNPR1-mFc [5]): 7.54e-05 s⁻¹ | kon (mfNPR1-mFc [5]): 54000 M⁻¹ s⁻¹ | t½ (mfNPR1-mFc [5]): 153 min | 100 nM Ag Bound (RU) (hNPR1-mFc:hBNP complex [6]): 72 RU | Kd (hNPR1-mFc:hBNP complex [6]): 0.908 nM | koff (hNPR1-mFc:hBNP complex [6]): 4.96e-05 s⁻¹ | kon (hNPR1-mFc:hBNP complex [6]): 54600 M⁻¹ s⁻¹ | t½ (hNPR1-mFc:hBNP complex [6]): 233 min | 100 nM Ag Bound (RU) (mfNPR1-mFc:hANP complex [7]): 111 RU | Kd (mfNPR1-mFc:hANP complex [7]): 0.757 nM | koff (mfNPR1-mFc:hANP complex [7]): 4.55e-05 s⁻¹ | kon (mfNPR1-mFc:hANP complex [7]): 60100 M⁻¹ s⁻¹ | t½ (mfNPR1-mFc:hANP complex [7]): 254 min | 100 nM Ag Bound (RU) (mfNPR1-mFc:hBNP complex): 110 RU | Kd (mfNPR1-mFc:hBNP complex): 0.632 nM | koff (mfNPR1-mFc:hBNP complex): 3.71e-05 s⁻¹ | kon (mfNPR1-mFc:hBNP complex): 58600 M⁻¹ s⁻¹ | t½ (mfNPR1-mFc:hBNP complex): 312 min | 100 nM Ag Bound (RU) [8]: 71 RU | Kd [8]: 0.794 nM | koff [8]: 4.15e-05 s⁻¹ | kon [8]: 52200 M⁻¹ s⁻¹ | t½ [8]: 278 min

B2: mAb22809 (antibody, human IgG4, V domains shown)
VH: QLQLRESGPGLVKPSETLSLTCTVSGGSINDNSFFWDWIRQTPGRGLEWIGNIFFDGNTYYTPSLKSRVIISVDMSQNQFSLRLTSVTAADTALYYCARHKRSMTAWGFFDYWGQGTLVTVSS
VL: DIQMTQSPSSLSASVGDRVTITCRASKRINTYLNWYQQKPGKAPKVLIYSASNLQSGVPSRFSGSGSGTDFTLTINSLQPEDFATYFCQQSFSAPPITFGQGTRLEIK
100 nM Ag Bound (RU) (mfNPR1-mFc [1]): 8 RU | 100 nM Ag Bound (RU) (hNPR1-mFc:hBNP complex [2]): 63 RU | Kd (hNPR1-mFc:hBNP complex [2]): 3.56 nM | koff (hNPR1-mFc:hBNP complex [2]): 0.000166 s⁻¹ | kon (hNPR1-mFc:hBNP complex [2]): 46500 M⁻¹ s⁻¹ | t½ (hNPR1-mFc:hBNP complex [2]): 69.8 min | 100 nM Ag Bound (RU) (mfNPR1-mFc:hANP complex [3]): 106 RU | Kd (mfNPR1-mFc:hANP complex [3]): 3.7 nM | koff (mfNPR1-mFc:hANP complex [3]): 0.000205 s⁻¹ | kon (mfNPR1-mFc:hANP complex [3]): 55500 M⁻¹ s⁻¹ | t½ (mfNPR1-mFc:hANP complex [3]): 56.2 min | 100 nM Ag Bound (RU) [4]: 68 RU | Kd [4]: 3.29 nM | koff [4]: 0.000166 s⁻¹ | kon [4]: 50400 M⁻¹ s⁻¹ | t½ [4]: 69.5 min | 100 nM Ag Bound (RU) (mfNPR1-mFc [5]): 6 RU | binding result (mfNPR1-mFc [5]): no binding (tested: 100 nM) | 100 nM Ag Bound (RU) (hNPR1-mFc:hBNP complex [6]): 51 RU | Kd (hNPR1-mFc:hBNP complex [6]): 6.72 nM | koff (hNPR1-mFc:hBNP complex [6]): 0.000221 s⁻¹ | kon (hNPR1-mFc:hBNP complex [6]): 32800 M⁻¹ s⁻¹ | t½ (hNPR1-mFc:hBNP complex [6]): 52.4 min | 100 nM Ag Bound (RU) (mfNPR1-mFc:hANP complex [7]): 86 RU | Kd (mfNPR1-mFc:hANP complex [7]): 3.88 nM | koff (mfNPR1-mFc:hANP complex [7]): 0.000173 s⁻¹ | kon (mfNPR1-mFc:hANP complex [7]): 44700 M⁻¹ s⁻¹ | t½ (mfNPR1-mFc:hANP complex [7]): 66.6 min | 100 nM Ag Bound (RU) (mfNPR1-mFc:hBNP complex): 80 RU | Kd (mfNPR1-mFc:hBNP complex): 3.85 nM | koff (mfNPR1-mFc:hBNP complex): 0.00016 s⁻¹ | kon (mfNPR1-mFc:hBNP complex): 41400 M⁻¹ s⁻¹ | t½ (mfNPR1-mFc:hBNP complex): 72.4 min | 100 nM Ag Bound (RU) [8]: 53 RU | Kd [8]: 4.94 nM | koff [8]: 0.000193 s⁻¹ | kon [8]: 39200 M⁻¹ s⁻¹ | t½ [8]: 59.7 min
